Reference: the supplement of paper PMC9732359
± gives the uncertainty stated by the source.

Experiment: protein stability index of a GFP-peptide fusion (yeast GPS) (PSI 1-4); higher = more stable; sorted into four equal gates, so the index is relative within each strain
Summary of the method: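 Yeast carrying a pooled library were grown to mid-log phase in leucine-free medium. Each library plasmid expresses Cherry and has a tiled 17-residue yeast protein peptide fused downstream of GFP. Cells were sorted into four equal gates by GFP/Cherry ratio, and plasmids from each gate were PCR-amplified, Illumina-sequenced and assigned to strains by barcode. Summing, across gates, the read frequency times the gate number gave each peptide's protein stability index.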

Row | Sequence | protein stability index (doa10∆) | protein stability index (pdr5∆) | protein stability index (san1∆) | protein stability index (ubr1∆)
1 | TISKTVSSTIPRETIPF [FAS2] | 2.96 ± 0.072 | 2.96 ± 0.084 | 2.75 ± 0.11 | 2.71 ± 0.052
2 | IHSMNENPTPEKGNAKM [SIR3] | 2.94 ± 0.087 | 2.67 ± 0.069 | 3.03 ± 0.059 | 2.87 ± 0.048
3 | KLYTFLARRTDAPFNKV [RPL18A] | 1.78 ± 0.052 | 1.65 ± 0.042 | 1.97 ± 0.079 | 1.89 ± 0.068
4 | DNIRYATALQTCAGGRL [SMC2] | 2.31 ± 0.086 | 3.02 ± 0.083 | 2.8 ± 0.11 | 1.62 ± 0.058
5 | ILYEIRALYTPFLLMEL [YDL116W/NUP84] | 2.66 ± 0.081 | 2.93 ± 0.064 | 2.79 ± 0.066 | 3.02 ± 0.062
6 | FQLPTTCVSMAPIQLKI [RGR1] | 1.3 ± 0.051 | 1.76 ± 0.055 | 1.78 ± 0.06 | 1.67 ± 0.039
7 | MVGLVDPDKLKPNDLVG [RPT5] | 2.87 ± 0.097 | 2.94 ± 0.14 | 2.94 ± 0.062 | 2.75 ± 0.069
8 | TSVIQDLSEKILNDIET [BRR2] | 2.89 ± 0.1 | 3.3 ± 0.11 | 3.21 ± 0.061 | 3.09 ± 0.076
9 | VHTIIAGLDEDGKGAVY [PRE7] | 3.63 ± 0.16 | 3.41 ± 0.099 | 3.35 ± 0.093 | 3.32 ± 0.093
10 | MDVDIGCYFEEKRYDDK [CSN12] | 3.42 ± 0.087 | 3.19 ± 0.15 | 3.01 ± 0.11 | 3.33 ± 0.15
11 | LTSDLVYFGDENKVMLP [RRI2] | 3.21 ± 0.093 | 3.34 ± 0.089 | 3.07 ± 0.076 | 3.03 ± 0.068
12 | VEFNRKVVIPNLLCYYN [RPN3] | – | 1.67 ± 0.22 | – | –
13 | LFSPEEVRAISVAKIRF [RPO21] | 2.17 ± 0.1 | 2.31 ± 0.088 | 2.41 ± 0.096 | 2.39 ± 0.07
14 | RGTTAVLKESIVNICDI [PUP1] | – | 3.2 ± 0.22 | – | 1.79 ± 0.27
15 | FQNTNTRSALKLVRESE [QCR2] | 2.7 ± 0.078 | 2.94 ± 0.074 | 2.81 ± 0.088 | 2.64 ± 0.07
16 | IVAKYDPPIIIFINYKQ [PRP28] | 2.47 ± 0.075 | 1.77 ± 0.068 | 1.98 ± 0.12 | 1.96 ± 0.048
17 | PQYNMNMGMNNMNNGGK [PGD1] | 3.42 ± 0.21 | 3.48 ± 0.19 | 3.16 ± 0.11 | 3.24 ± 0.083
18 | YYYNTKIYKLENGERKL [YMR129W/POM152] | 3.03 ± 0.05 | 3.26 ± 0.069 | 3.1 ± 0.069 | 3.18 ± 0.04
19 | NSDLEFNTFWDEKGNEI [ARP9] | 3.41 ± 0.08 | 3.25 ± 0.12 | 3.31 ± 0.12 | 3.34 ± 0.077
20 | GSTGGLGASFGQQQQQS [YGL172W/NUP49] | 2.76 ± 0.2 | 2.81 ± 0.076 | 2.12 ± 0.12 | 3.1 ± 0.1
21 | QLIDQFEWDISNSDNCP [SNF5] | 3.02 ± 0.092 | 3.18 ± 0.12 | 3.21 ± 0.058 | 3.27 ± 0.065
22 | IPLDNYDDFIYLSDLKQ [PCI8] | 2.11 ± 0.12 | 2.04 ± 0.14 | 1.77 ± 0.25 | 2.62 ± 0.12
23 | ESAPITAEDSWAVISAF [RPB2] | 3.17 ± 0.08 | 2.99 ± 0.062 | 2.91 ± 0.051 | 2.99 ± 0.06
24 | LINLAKTRVGSVTAQVY [RPC82] | 2.41 ± 0.096 | 1.66 ± 0.065 | 1.16 ± 0.18 | 1.45 ± 0.11
25 | LKRNRIRNARSIRAEAV [POP1] | 1.71 ± 0.15 | 2.44 ± 0.1 | – | 2.59 ± 0.13
26 | EFLKWTPNVNVLVLHGD [ISW2] | 1.69 ± 0.064 | 1.69 ± 0.06 | 1.53 ± 0.12 | 1.84 ± 0.082
27 | RRRRLKKVEEEENAATL [RPB4] | 3.17 ± 0.2 | 3.75 ± 0.26 | – | –

Row | Sequence | protein stability index (doa10∆) | protein stability index (pdr5∆) | protein stability index (san1∆) | protein stability index (ubr1∆)
28 | ANGIINVKEITEKLKIS [SMC3] | 2.81 ± 0.12 | 2.64 ± 0.099 | 2.75 ± 0.14 | 2.9 ± 0.06
29 | LRLLLLLIEFPYLPKHY [YJR042W/NUP85] | 1.81 ± 0.052 | 1.72 ± 0.054 | 1.55 ± 0.062 | 1.76 ± 0.047
30 | RGFFHLNEALLQCPMLY [CSN12] | 2.06 ± 0.071 | 2.2 ± 0.058 | 1.9 ± 0.13 | 1.99 ± 0.056
31 | TFKSVSKYGMLLLRCDD [POP3] | 1.89 ± 0.058 | 2.01 ± 0.067 | 1.96 ± 0.12 | 1.72 ± 0.068
32 | TEGPSDKKLNLNLPLQF [SNF12] | 3.12 ± 0.1 | 3.31 ± 0.093 | 3.31 ± 0.091 | 2.87 ± 0.11
33 | PEKTSTELVDGRENFVY [SIR3] | 3.08 ± 0.099 | 3.25 ± 0.15 | 3.1 ± 0.12 | 3 ± 0.088
34 | EINYAFSMDEEFKNMDC [SIR3] | 3.09 ± 0.068 | 3.14 ± 0.053 | 3.22 ± 0.04 | 3.25 ± 0.048
35 | SVQTFGKKKSATAVAHV [RPS16A] | 2.37 ± 0.065 | 2.49 ± 0.069 | 2.19 ± 0.11 | 2.1 ± 0.069
36 | AARKAEKAKSAGTQSSK [RPL24A] | 3.13 ± 0.099 | 3.11 ± 0.068 | 3.22 ± 0.082 | 3.29 ± 0.043
37 | NGVNVQIDQLNRLLPNL [GRR1] | 2.86 ± 0.044 | 3.07 ± 0.05 | 2.88 ± 0.039 | 2.91 ± 0.04
38 | AKKTSTSTDGKKRSKAR [HTB1] | 3.2 ± 0.25 | 3.12 ± 0.17 | – | –
39 | KKLKPIVAKYDPPIIIF [PRP28] | 2.94 ± 0.069 | 2.59 ± 0.075 | 2.73 ± 0.086 | 2.37 ± 0.052
40 | ITRLCQTLGLESFTEEL [MED1] | 2.54 ± 0.054 | 2.81 ± 0.063 | 1.59 ± 0.16 | 2.51 ± 0.056
41 | MKYTQYPNSSKLKRNSD [LIN1] | 3.17 ± 0.089 | 3.03 ± 0.079 | 2.99 ± 0.05 | 3.14 ± 0.094
42 | YDLVDNKGAKAEDVALN [NAS6] | 2.8 ± 0.14 | 3.39 ± 0.27 | 2.87 ± 0.12 | 3.07 ± 0.071
43 | DQKTGRAKSSSHLFNEY [RPN4] | 2.85 ± 0.25 | 3.22 ± 0.24 | 3.39 ± 0.12 | 3.46 ± 0.15
44 | NEIANSIIQSKQDCVDW [BRR2] | 2.61 ± 0.069 | 2.87 ± 0.071 | 2.73 ± 0.071 | 2.88 ± 0.079
45 | LMLGSVNLPGGILRRKS [RRP4] | 1.96 ± 0.058 | 1.46 ± 0.11 | 1.54 ± 0.14 | 1.4 ± 0.047
46 | QHIKVFKLDKDTSNWEL [YGL100W/SEH1] | 3.43 ± 0.15 | 3.15 ± 0.12 | 3.2 ± 0.16 | 3.62 ± 0.29
47 | KLLFQELLSMNIAPRLR [RET1] | 1.35 ± 0.052 | 1.31 ± 0.049 | 1.35 ± 0.089 | 1.24 ± 0.042
48 | HPAYLFKGLETPLKARQ [YLR018C/POM34] | 2.16 ± 0.073 | 2.26 ± 0.057 | 1.36 ± 0.077 | 2.08 ± 0.043
49 | QYYRGLPLYEKNTLLER [SWP82] | 3.13 ± 0.12 | 3.34 ± 0.11 | 3.13 ± 0.072 | 3.13 ± 0.049
50 | EDEFIVQHDQILVMETS [SWP82] | 2.95 ± 0.069 | 2.54 ± 0.063 | 2.33 ± 0.082 | 2.98 ± 0.048
51 | NIMSASGGLFGNQQQQL [YGL172W/NUP49] | 3.25 ± 0.067 | 3.12 ± 0.086 | 3.29 ± 0.1 | 3.2 ± 0.042
52 | FGKTVKDGPFYTGSMSL [RPC31] | 2.92 ± 0.15 | 3.17 ± 0.11 | 2.81 ± 0.086 | 2.98 ± 0.1
53 | PFQLDVADMLTPEYAAE [UBP6] | 2.95 ± 0.17 | 2.65 ± 0.19 | 2.7 ± 0.085 | 2.77 ± 0.16
